Kd data for 2 substances are collected here from paper PMC4014808.

One series deals with L3MBTL2. Description: ELISA. Conditions: ELISA: 20 mM Tris-HCl pH 7.5, 150 mM NaCl, 20 mM KCl, 0.02% IGEPAL, 1 mM DTT, 1 h at room temperature, 50 uL of 50 nM biotinylated DNA per well.
The test system of the next series is MPG. The series can be described thus: ELISA. The note with it: all C outside primers replaced by 5-formylcytosine (dfCTP in PCR); ELISA: 20 mM Tris-HCl pH 7.5, 150 mM NaCl, 20 mM KCl, 0.02% IGEPAL, 1 mM DTT, 1 h at room temperature; 50 uL of 50 nM biotinylated DNA per well.

Consider Fgf15 promoter probe, 5fC, for which the Kd was 37.1 nM in the series with L3MBTL2 (all C outside primers replaced by 5-formylcytosine (dfCTP in PCR)) and 13.4 nM in the series on MPG.

In the series with L3MBTL2, Fgf15 promoter probe, C had a dissociation constant Kd of 81.2 nM. In other words, the double-digit nanomolar range.
